Article PMC8163506, “A novel ATP dependent dimethylsulfoniopropionate lyase in bacteria that releases dimethyl sulfide and acryloyl-CoA” (eLife, 2021)

Target: DddX (ATP-dependent DMSP lyase) of Psychrobacter sp. D2, recombinant (Psychrobacter sp. D2)
Assay: SEC; gel filtration of purified DddX against molecular mass standards (semilog plot of mass versus Kav)

stoichiometry N: 2
Substance: DddX (ATP-dependent DMSP lyase) of Psychrobacter sp. D2, recombinant (enzyme)
